How the values were obtained:
[1] = target: T1, JCV VLPs (JC virus (JCV), UniProt P03089 1-354); assay: ELISA on plate-coated JCV VLPs (OD 450 nm)
T1 construct: also called JC virus VLPs; JCV consensus

[2] = target: VP1 of the pooled BKV serotype I resistance-associated variant (RAV) virus with 20 amino acid changes (BK virus (BKV) serotype I); assay: cell-based or functional assay
[3] = target: VP1 on chimeric infectious BKV serotype II (BK virus (BKV) serotype II, UniProt P14996 1-362); assay: cell-based or functional assay

B1: 2077-26-1 (antibody, V domains shown)
VH: EVQLQQSGPDLVKPGASMKLSCKASGYSFTGYTMNWVKQSHGKNLEWIGLFNPYNGGPSYNQKFKGKATLTVDKSSSTAYMELLSLTPEDSAVYYCARLRYYGIGDDFFDYWGQGTTLTVSS
VL: DIVMTQSHKFMSTSVGDRVSITCKASQDVGTAVAWYQEKPGQSPKLLIYWASTRHTGVPDRFTGSGSGTDFTLTISNVQSEDLAYYFCQQYSNYPYTFGGGTKLEIK
In the case of B1, the “EC50 (read off the curve)” value [1] is reported as roughly 0.07 nM.

B2: 2077-28-2 (antibody, V domains shown)
VH: EVQLQQSGPELVKPGASMKISCKASGYSFTGYTMNWVKQSHGKNLEWIGLFNPYNGGATYNQRFKGKATLTVDKSSSTAYMDLLSLTSEDSAVYYCTRLRKYGIGDDFFDYWGQGTTLTVSS
VL: DIVMTQSHKFMSTSVGDRVSITCKASQDVGTAVAWYQQKPGQSPKLLIYWASTRHTGVPDRFTGSGSGTDFTLTISNVQSEDLADYFCQQYSTYTYTFGGGTKLEIK
For B2, the “EC50 (read off the curve)” value [1] was roughly 0.08 nM.

B3: P8D11 (antibody, human IgG1, lambda)
heavy: not shown
light: QSVLTQPPSVSVAPGKTARITCGGDNIGSRPVHWYQQKPGQAPILVVYDDSNRPSGIPERFSGSNSGNTATLTISRVEAGDEADYYCQVWSSSTDHPFGGGTKVTVLGQPKAAPSVTLFPPSSEELQANKATLVCLISDFYPGAVTVAWKADSSPVKAGVETTTPSKQSNNKYAASSYLSLTPEQWKSHRSYSCQVTHEGSTVEKTVAPTECS
With B3 the “shift in EC50 of neutralisation against wild-type virus” value [2] was 3.9 fold.

B4: NEG447A (antibody, human IgG1, lambda, V domains shown)
VH: QVQLQESGPGLVKPSETLSLTCTVSGGSISRDYWSWVRQPPGAGLEWIGNIYYSGSTNYNPSLKSRVTISVATNKKQFSLKLTSVTAADTAVYYCARVPGCSSTSCIDGWFDPWGQGILVTVSS
VL: QSVLTQPPSVSAAPGQKVTISCSGSSSNIGNTYVSWYQQLPGTAPKLLIYDNNKRPSGIPDRFSGSKSGTSATLGITGLQTGDEADYYCGTWDSSLSAWVFGGGTRLTVLG
B4 was tested, and the “EC90 of neutralisation, fold change” value [3] was roughly 8 fold.

Reference: patent US20190002533A1 (Novartis, published 2019)
